Measured values reported in the supplement of paper PMC10567573.

B1: RPS21 (parent)
chain: AEVSWEPGRREGCDICAGKAGCPI

Variants of: B1
Test: protein stability index of a GFP-peptide fusion (GPS, HEK-293T) (PSI 1-6); higher = more stable
Details: c terminus: a fixed tail appended
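Note: lentivirally expressed fusions sorted by FACS into six bins by GFP to DsRed ratio, PSI derived from sequencing read proportions per bin multiplied by bin number.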

Variant | protein stability index
AEVSWEPGRREGCDICAGKAGDPI | 3.66
AEVSWEPGRREGCDICAGKAGKPI | 2.99
AEVSWEPGRREGCDICAGKAGYPI | 2.2
AEVSWEPGRREGCDICAGKAGHPI | 2.9
AEVSWEPGRREGCDICAGKAGRPI | 2.32
AEVSWEPGRREGCDICAGKAGFPI | 2.28
AEVSWEPGRREGCDICAGKAGMPI | 3.11
AEVSWEPGRREGCDICAGKAGWPI | 2.82
AEVSWEPGRREGCDICAGKAGEPI | 3.88
AEVSWEPGRREGCDICAGKAGPPI | 3.34
AEVSWEPGRREGCDICAGKAGNPI | 2.96
AEVSWEPGRREGCDICAAKAGCPI | 3.08
AEVSWEPGRREGCDICAYKAGCPI | 2.66
AEVSWEPGRREGCDICACKAGCPI | 2.79
AEVSWEPGRREGCDICAWKAGCPI | 2.74
AEVSWEPGRREGCDICADKAGCPI | 4.25
AEVSWEPGRREGCDICAMKAGCPI | 3.06
AEVSWEPGRREGCDICAIKAGCPI | 2.24
AEVSWEPGRREGCDICAFKAGCPI | 2.75
AEVSWEPGRREGCDICANKAGCPI | 3.63
AEVSWEPGRREGCDICASKAGCPI | 3.63
AEVSWEPGRREGCDICAPKAGCPI | 3.47
AEVSWEPGRREGCDICATKAGCPI | 3.28
AEVSWEPGRREGCDICAKKAGCPI | 2.7

Variant | protein stability index
AEVSWEPGRREGCDICAHKAGCPI | 2.97
AEVSWEPGRREGCDICAGKAGCNI | 2.62
AEVSWEPGRREGCDICAGKAGCKI | 3.04
AEVSWEPGRREGCDICAGKAGCLI | 2.92
AEVSWEPGRREGCDICAGKAGCDI | 3.85
AEVSWEPGRREGCDICAGKAGCMI | 1.48
AEVSWEPGRREGCDICAGKAGCEI | 3.1
AEVSWEPGRREGCDICAGKAGCAI | 2.32
AEVSWEPGRREGCDICAGKAGCVI | 2.18
AEVSWEPGRREGCDICAGKAGCYI | 1.73
AEVSWEPGRREGCDICAGKAGCTI | 2.27
AEVSWEPGRREGCDICAGKAGCQI | 2.68
AEVSWEPGRREGCDICAGKAGCWI | 1.8
AEVSWEPGRREGCDICAGKAGCII | 3.05
AEVSWEPGRREGCDICAGKAGCFI | 2.04
AEVSWEPGRREGCDICAGKAGCHI | 2.61
AEVSWEPGRREGCDICAGKAGCGI | 3.82
AEVSWEPGRREGCDICAGKAQCPI | 4.18
AEVSWEPGRREGCDICAGKASCPI | 2.59
AEVSWEPGRREGCDICAGKANCPI | 2.82
AEVSWEPGRREGCDICAGKARCPI | 2.75
AEVSWEPGRREGCDICAGKALCPI | 3.38
AEVSWEPGRREGCDICAGKACCPI | 2.84
AEVSWEPGRREGCDICAGKAMCPI | 3.01

Variant | protein stability index
AEVSWEPGRREGCDICAGKAPCPI | 3.35
AEVSWEPGRREGCDICAGKADCPI | 3.59
AEVSWEPGRREGCDICAGKAACPI | 3.26
AEVSWEPGRREGCDICAGKAICPI | 2.67
AEVSWEPGRREGCDICAGKAFCPI | 2.13
AEVSWEPGRREGCDICAGKAYCPI | 3.56
AEVSWEPGRREGCDICAGKAGCPA | 4.48
AEVSWEPGRREGCDICAGKAGCPS | 3.79
AEVSWEPGRREGCDICAGKAGCPT | 3.96
AEVSWEPGRREGCDICAGKAGCPY | 2.54
AEVSWEPGRREGCDICAGKAGCPC | 5.83
AEVSWEPGRREGCDICAGKAGCPV | 3.19
AEVSWEPGRREGCDICAGKAGCPG | 3.41
AEVSWEPGRREGCDICAGKAGCPE | 4.76
AEVSWEPGRREGCDICAGKAGCPH | 5.43
AEVSWEPGRREGCDIYAGKAGCPI | 3.04
AEVSWEPGRREGCDIVAGKAGCPI | 3.67
AEVSWEPGRREGCDITAGKAGCPI | 2.97
AEVSWEPGRREGCDIWAGKAGCPI | 1.6
AEVSWEPGRREGCDICAGKCGCPI | 4.67
AEVSWEPGRREGCDICAGKSGCPI | 3.69
AEVSWEPGRREGCDICAGKDGCPI | 3.5
AEVSWEPGRREGCDICAGKEGCPI | 2.36
AEVSWEPGRREGCDICAGKLGCPI | 2.48

Variant | protein stability index
AEVSWEPGRREGCDICAGKHGCPI | 3.25
AEVSWEPGRREGCDICAGKNGCPI | 3.26
AEVSWEPGRREGCDICAGKVGCPI | 2.59
AEVSWEPGRREGCDICAGKIGCPI | 2.53
AEVSWEPGRREGCDICAGKRGCPI | 2.26
AEVSWEPGRREGCDICAGKTGCPI | 3.75
AEVSWEPGRREGCDICAGKYGCPI | 2.96
AEVSWEPGRREGCDICAGKKGCPI | 1.5
AEVSWEPGRREGCDICAGKPGCPI | 3.34
AEVSWEPGRREGCDICAGKFGCPI | 3.1
AEVSWEPGRREGCDICMGKAGCPI | 2.29
AEVSWEPGRREGCDICPGKAGCPI | 3.72
AEVSWEPGRREGCDICVGKAGCPI | 3.14
AEVSWEPGRREGCDICHGKAGCPI | 3.66
AEVSWEPGRREGCDICNGKAGCPI | 3.45
AEVSWEPGRREGCDICFGKAGCPI | 2.3
AEVSWEPGRREGCDICTGKAGCPI | 3.58
AEVSWEPGRREGCDICCGKAGCPI | 3.11
AEVSWEPGRREGCDICRGKAGCPI | 2.97
AEVSWEPGRREGCDICIGKAGCPI | 2.59
AEVSWEPGRREGCDICSGKAGCPI | 2.46
AEVSWEPGRREGCDICEGKAGCPI | 3.78
